Experimental data: paper PMC2529400

Target: KSHV viral G protein-coupled receptor, Flag-tagged (vGPCR-Flag) (Kaposi's sarcoma-associated herpesvirus (human herpesvirus 8)) (UniProt Q98146)
Sequence of UniProt Q98146 (Q98146 whole entry): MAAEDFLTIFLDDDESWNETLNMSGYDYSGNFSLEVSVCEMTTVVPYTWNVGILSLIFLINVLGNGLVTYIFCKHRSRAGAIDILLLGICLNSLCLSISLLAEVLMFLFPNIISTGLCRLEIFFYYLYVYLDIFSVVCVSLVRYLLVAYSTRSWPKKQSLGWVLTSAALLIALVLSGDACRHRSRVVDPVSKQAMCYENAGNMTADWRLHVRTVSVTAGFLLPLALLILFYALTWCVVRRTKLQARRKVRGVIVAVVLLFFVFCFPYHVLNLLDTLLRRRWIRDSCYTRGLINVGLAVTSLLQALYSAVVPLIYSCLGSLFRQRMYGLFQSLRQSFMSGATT

Substance: KSHV K7 small membrane protein, V5-tagged (K7-V5), wild type (natural protein)
- AP-1 luciferase reporter activation by vGPCR in 293T cells with K7 co-expressed (about 4.5 fold without K7): 2 fold
- NF-AT luciferase reporter activation by vGPCR in 293T cells with K7 co-expressed (about 25 fold without K7): 8 fold
- NF-κB luciferase reporter activation by vGPCR in 293T cells with K7 co-expressed (about 4 fold without K7): 2 fold
